{"source": "patent US20210155701A1", "about": "(Chugai, published 2021)", "key": {"[1]": {"biological_target": "T1, soluble human IL-6R (human, UniProt P08887 20-357)", "T1 construct": "also called hsIL-6R; recombinant human IL6R", "T1 sequence": "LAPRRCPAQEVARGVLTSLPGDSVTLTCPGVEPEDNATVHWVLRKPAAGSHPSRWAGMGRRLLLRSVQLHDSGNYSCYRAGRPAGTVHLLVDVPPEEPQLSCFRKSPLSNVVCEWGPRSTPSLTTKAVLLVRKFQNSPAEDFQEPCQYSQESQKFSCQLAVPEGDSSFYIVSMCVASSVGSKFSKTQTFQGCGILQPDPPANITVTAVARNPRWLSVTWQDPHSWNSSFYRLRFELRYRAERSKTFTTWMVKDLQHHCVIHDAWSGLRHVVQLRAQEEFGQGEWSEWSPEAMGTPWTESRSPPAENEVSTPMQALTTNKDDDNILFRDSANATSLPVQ", "assay": "BLI (Octet) as in Example 3"}, "[2]": {"biological_target": "T1, soluble human IL-6R", "assay": "BLI (Octet) as in Example 3, 30 degrees C or 25 degrees C"}, "[3]": {"biological_target": "T2, human CD3ed-Fc (biotin-labeled human CD3 epsilon and human CD3 delta linked to a human antibody constant … (human, biotin-labeled (BirA co-expression); site not stated)", "T2 construct": "also called CD3 epsilon delta heterodimer fused with the antibody constant region", "T2 chain 1": "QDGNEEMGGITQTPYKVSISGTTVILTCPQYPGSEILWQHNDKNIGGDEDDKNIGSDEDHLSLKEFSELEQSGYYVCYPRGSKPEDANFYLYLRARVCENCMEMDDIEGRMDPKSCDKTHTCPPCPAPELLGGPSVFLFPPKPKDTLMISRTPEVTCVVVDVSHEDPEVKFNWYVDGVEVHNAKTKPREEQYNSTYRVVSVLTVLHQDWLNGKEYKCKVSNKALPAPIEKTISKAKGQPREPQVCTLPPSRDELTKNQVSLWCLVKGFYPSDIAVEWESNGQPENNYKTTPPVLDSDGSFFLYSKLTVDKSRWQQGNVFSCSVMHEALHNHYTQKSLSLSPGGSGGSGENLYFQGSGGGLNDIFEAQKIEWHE", "T2 chain 2": "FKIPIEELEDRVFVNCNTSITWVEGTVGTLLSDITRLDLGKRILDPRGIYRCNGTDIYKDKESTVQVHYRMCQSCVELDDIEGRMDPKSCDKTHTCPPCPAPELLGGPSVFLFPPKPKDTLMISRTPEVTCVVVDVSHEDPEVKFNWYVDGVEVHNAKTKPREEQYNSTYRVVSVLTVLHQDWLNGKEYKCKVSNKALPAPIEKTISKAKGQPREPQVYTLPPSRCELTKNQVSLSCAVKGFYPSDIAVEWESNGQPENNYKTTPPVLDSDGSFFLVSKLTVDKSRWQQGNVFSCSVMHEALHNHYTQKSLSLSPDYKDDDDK", "assay": "phage display: phage ELISA or panning on biotin-labeled human CD3ed-Fc (binding clone for human CD3)"}, "[4]": {"biological_target": "T2, human CD3ed-Fc (biotin-labeled human …)", "assay": "BLI (Octet RED) as in Example 3"}, "[5]": {"biological_target": "T1, soluble human IL-6R", "assay": "BLI (Octet HTX), molecule on Protein A biosensor, hsIL-6R as analyte, 30 degrees C", "method": "The hsIL-6R binding evaluation of each molecule was conducted using Octet HTX (Pall ForteBio Corp.). Specifically, each molecule was bound to Biosensor/Protein A (ProA) (Pall ForteBio Corp., 18-5013), and hsIL-6R was allowed to act thereon, followed by binding evaluation at 30 degrees C."}}}
{"binder": "20A11-G1m/VK1-39-k0MT (antibody, human IgG1, kappa, V domains shown) VH: EVQLVESGGGLVQPGGSLRLSCAASGSVFKINVMAWYRQAPGKGRELVAGIISGGSTSYADSVKGRFTISRDNAKNTLYLQMNSLRPEDTAVYYCAFITTESDYDLGRRYWGQGTLVTVSS VL: DIQMTQSPSSLSASVGDRVTITCRASQSISSYLNWYQQKPGKAPKLLIYAASSLQSGVPSRFSGSGSGTDFTLTISSLQPEDFATYYCLQFDSYPLTFGGGTKVEIKR", "values": [{"measurement": "binding result", "setting": "[1]", "result": "binds"}]}
{"binder": "20A11hu-G1m/VK1-39-k0MT (antibody, human IgG1, kappa, V domains shown) VH: EVQLVESGGGLVQPGGSLRLSCAASGSVFKINVMAWVRQAPGKGLEWVAGIISGGSTSYADSVKGRFTISRDNAKNTLYLQMNSLRPEDTAVYYCAFITTESDYDLGRRYWGQGTLVTVSS VL: DIQMTQSPSSLSASVGDRVTITCRASQSISSYLNWYQQKPGKAPKLLIYAASSLQSGVPSRFSGSGSGTDFTLTISSLQPEDFATYYCLQFDSYPLTFGGGTKVEIKR", "values": [{"measurement": "binding result", "setting": "[2]", "result": "no binding"}]}
{"binder": "20A11-G1m/VK2-28-k0MT (antibody, human IgG1, kappa, V domains shown) VH: EVQLVESGGGLVQPGGSLRLSCAASGSVFKINVMAWYRQAPGKGRELVAGIISGGSTSYADSVKGRFTISRDNAKNTLYLQMNSLRPEDTAVYYCAFITTESDYDLGRRYWGQGTLVTVSS VL: not shown", "values": [{"measurement": "binding result", "setting": "[1]", "result": "binds"}]}
{"binder": "20A11hu-G1m/VK2-28-k0MT (antibody, human IgG1, kappa, V domains shown) VH: EVQLVESGGGLVQPGGSLRLSCAASGSVFKINVMAWVRQAPGKGLEWVAGIISGGSTSYADSVKGRFTISRDNAKNTLYLQMNSLRPEDTAVYYCAFITTESDYDLGRRYWGQGTLVTVSS VL: not shown", "values": [{"measurement": "binding result", "setting": "[2]", "result": "no binding"}]}
{"binder": "20A11-G1m/VL1-40-lamL (antibody, human IgG1, lambda, V domains shown) VH: EVQLVESGGGLVQPGGSLRLSCAASGSVFKINVMAWYRQAPGKGRELVAGIISGGSTSYADSVKGRFTISRDNAKNTLYLQMNSLRPEDTAVYYCAFITTESDYDLGRRYWGQGTLVTVSS VL: QSVLTQPPSVSGAPGQRVTISCTGSSSNIGAGYDVHWYQQLPGTAPKLLIYGNSNRPSGVPDRFSGSKSGTSASLAITGLQAEDEADYYCQSYDNSLNAVVFGGGTKLTVLG", "values": [{"measurement": "binding result", "setting": "[1]", "result": "binds"}]}
{"binder": "20A11hu-G1m/VL1-40-lamL (antibody, human IgG1, lambda, V domains shown) VH: EVQLVESGGGLVQPGGSLRLSCAASGSVFKINVMAWVRQAPGKGLEWVAGIISGGSTSYADSVKGRFTISRDNAKNTLYLQMNSLRPEDTAVYYCAFITTESDYDLGRRYWGQGTLVTVSS VL: QSVLTQPPSVSGAPGQRVTISCTGSSSNIGAGYDVHWYQQLPGTAPKLLIYGNSNRPSGVPDRFSGSKSGTSASLAITGLQAEDEADYYCQSYDNSLNAVVFGGGTKLTVLG", "values": [{"measurement": "binding result", "setting": "[2]", "result": "no binding"}]}
{"binder": "20A11-G1m/VL1-44-lamL (antibody, human IgG1, lambda, V domains shown) VH: EVQLVESGGGLVQPGGSLRLSCAASGSVFKINVMAWYRQAPGKGRELVAGIISGGSTSYADSVKGRFTISRDNAKNTLYLQMNSLRPEDTAVYYCAFITTESDYDLGRRYWGQGTLVTVSS VL: not shown", "values": [{"measurement": "binding result", "setting": "[1]", "result": "binds"}]}
{"binder": "20A11hu-G1m/VL1-44-lamL (antibody, human IgG1, lambda, V domains shown) VH: EVQLVESGGGLVQPGGSLRLSCAASGSVFKINVMAWVRQAPGKGLEWVAGIISGGSTSYADSVKGRFTISRDNAKNTLYLQMNSLRPEDTAVYYCAFITTESDYDLGRRYWGQGTLVTVSS VL: not shown", "values": [{"measurement": "binding result", "setting": "[2]", "result": "no binding"}]}
{"binder": "20A11-G1m/VL2-14-lamL (antibody, human IgG1, lambda, V domains shown) VH: EVQLVESGGGLVQPGGSLRLSCAASGSVFKINVMAWYRQAPGKGRELVAGIISGGSTSYADSVKGRFTISRDNAKNTLYLQMNSLRPEDTAVYYCAFITTESDYDLGRRYWGQGTLVTVSS VL: QSALTQPASVSGSPGQSITISCTGTSSDVGGYNYVSWYQQHPGKAPKLMIYEVSNRPSGVSNRFSGSKSGNTASLTISGLQAEDEADYYCSSYRSGYTLVVFGGGTKLTVLG", "values": [{"measurement": "binding result", "setting": "[1]", "result": "binds"}]}
{"binder": "20A11hu-G1m/VL2-14-lamL (antibody, human IgG1, lambda, V domains shown) VH: EVQLVESGGGLVQPGGSLRLSCAASGSVFKINVMAWVRQAPGKGLEWVAGIISGGSTSYADSVKGRFTISRDNAKNTLYLQMNSLRPEDTAVYYCAFITTESDYDLGRRYWGQGTLVTVSS VL: QSALTQPASVSGSPGQSITISCTGTSSDVGGYNYVSWYQQHPGKAPKLMIYEVSNRPSGVSNRFSGSKSGNTASLTISGLQAEDEADYYCSSYRSGYTLVVFGGGTKLTVLG", "values": [{"measurement": "binding result", "setting": "[2]", "result": "no binding"}]}
{"binder": "20A11-G1m/VL3-21-lamL (antibody, human IgG1, lambda, V domains shown) VH: EVQLVESGGGLVQPGGSLRLSCAASGSVFKINVMAWYRQAPGKGRELVAGIISGGSTSYADSVKGRFTISRDNAKNTLYLQMNSLRPEDTAVYYCAFITTESDYDLGRRYWGQGTLVTVSS VL: SYVLTQPPSVSVAPGKTARITCGGNNIGSKSVHWYQQKPGQAPVLVIYYDSDRPSGIPERFSGSNSGNTATLTISRVEAGDEADYYCQAWDSSTDVVFGGGTKLTVLG", "values": [{"measurement": "binding result", "setting": "[1]", "result": "binds"}]}
{"binder": "bC3edL1R1N160H01 (VHH) VHH: QVQLVESGGGLVQPGGSLRLSCAASGFTFNHCWMYWVRQAPGKGLEWVSVINTDGGSAYYADSVKGRFTISRDNAKNTLYLQMNSLKSEDTAVYYCARDWAPLVDYYYGMDYWGKGTLVTVSG", "values": [{"measurement": "binding result", "setting": "[3]", "result": "binds"}]}
{"binder": "bC3edL1R1N161H01 (VHH) VHH: QVQLVESGGGLVQPGGSLRLSCAASGFPFDNYVMSWVRQAPGKGLEWISAISWNGGSTYYAESMKGRFTISRDNAKSTLYLQMNSLKSEDTAVYYCAKEPRVYYSGSPDYWGQGTQVTVSG", "values": [{"measurement": "binding result", "setting": "[3]", "result": "binds"}]}
{"binder": "bC3edL1R1N164H01 (VHH) VHH: QVQLVESGGGLVQPGGSLRLSCAASGFTFDVYGMSWVRHSPGKGLEWVSTINWNGGSTYYAESMKGRFTISRDNAKNTVYLQMNSLKPEDTAVYYCAKFAPWDGDMEWGQGTQVTVSG", "values": [{"measurement": "binding result", "setting": "[3]", "result": "binds"}]}
{"binder": "bC3edL1R1N160H01-G1mISHI01/VK1-39-k0MT (before protease treatment) (antibody, human IgG1, kappa, V domains shown) VH: QVQLVESGGGLVQPGGSLRLSCAASGFTFNHCWMYWVRQAPGKGLEWVSVINTDGGSAYYADSVKGRFTISRDNAKNTLYLQMNSLKSEDTAVYYCARDWAPLVDYYYGMDYWGKGTLVTVSG VL: DIQMTQSPSSLSASVGDRVTITCRASQSISSYLNWYQQKPGKAPKLLIYAASSLQSGVPSRFSGSGSGTDFTLTISSLQPEDFATYYCLQFDSYPLTFGGGTKVEIKR", "values": [{"measurement": "binding result", "setting": "[4]", "result": "no binding"}]}
{"binder": "IL6R90-G1m/VK2-28-k0MT (antibody, human IgG1, kappa, V domains shown, IgG antibody-like molecule) VH: EVQLVESGGGLVQPGGSLRLSCAASGFTFDDYGMSWVRQAPGKALEWVSAISWNGNNTYYTESMKGRFTISRDNAKNTLYLQMNSLRPEDTAVYYCVKGSTAIVGVPPTYPDEYDYWGQGTLVTVSS VL: not shown", "values": [{"measurement": "binding result", "setting": "[5]", "result": "no binding"}]}
{"binder": "IL6R90-G1m/VL1-40-lamL (antibody, human IgG1, lambda, V domains shown, IgG antibody-like molecule) VH: EVQLVESGGGLVQPGGSLRLSCAASGFTFDDYGMSWVRQAPGKALEWVSAISWNGNNTYYTESMKGRFTISRDNAKNTLYLQMNSLRPEDTAVYYCVKGSTAIVGVPPTYPDEYDYWGQGTLVTVSS VL: QSVLTQPPSVSGAPGQRVTISCTGSSSNIGAGYDVHWYQQLPGTAPKLLIYGNSNRPSGVPDRFSGSKSGTSASLAITGLQAEDEADYYCQSYDNSLNAVVFGGGTKLTVLG", "values": [{"measurement": "binding result", "setting": "[5]", "result": "no binding"}]}
{"binder": "IL6R90-G1m/VL1-44-lamL (antibody, human IgG1, lambda, V domains shown, IgG antibody-like molecule) VH: EVQLVESGGGLVQPGGSLRLSCAASGFTFDDYGMSWVRQAPGKALEWVSAISWNGNNTYYTESMKGRFTISRDNAKNTLYLQMNSLRPEDTAVYYCVKGSTAIVGVPPTYPDEYDYWGQGTLVTVSS VL: not shown", "values": [{"measurement": "binding result", "setting": "[5]", "result": "no binding"}]}
{"binder": "IL6R90-G1m/VL2-14-lamL (antibody, human IgG1, lambda, V domains shown, IgG antibody-like molecule) VH: EVQLVESGGGLVQPGGSLRLSCAASGFTFDDYGMSWVRQAPGKALEWVSAISWNGNNTYYTESMKGRFTISRDNAKNTLYLQMNSLRPEDTAVYYCVKGSTAIVGVPPTYPDEYDYWGQGTLVTVSS VL: QSALTQPASVSGSPGQSITISCTGTSSDVGGYNYVSWYQQHPGKAPKLMIYEVSNRPSGVSNRFSGSKSGNTASLTISGLQAEDEADYYCSSYRSGYTLVVFGGGTKLTVLG", "values": [{"measurement": "binding result", "setting": "[5]", "result": "no binding"}]}
